Literature values as cited in paper PMC7249735.

System: RGNNV coat protein (RGNNV-CP), MBP fusion (red-spotted grouper nervous necrosis virus (RGNNV))
Settings: PBS (137 mM NaCl, 2.7 mM KCl, 10 mM Na2HPO4, 1.8 mM KH2PO4, pH 7.4); ELASA 30 min at 4 C after 3% BSA block; sandwich capture in PBS, temperature not stated

In the case of “TGTGTGTCTATTGTCTGTGGTTCATGTCAAGCTTATTTTCCACACACGGT [A10]”, the Kd is given as 4 nM.
